Measurements taken from patent US20240343773A1 (AMIDEBIO, published 2024).
Ends that are not written are not given here.

B1: SEQ ID NO: 5 (ligand)
chain: FVDQHLCGSHLVEALYLVCGERGFFYTPKTYDGKGIVEQCCTSICSLYQLENYCG
modifications: ends and bridges not checked; cysteine pairing not given here
notes: Single chain insulin analog (B chain-C'-A chain)
B2: SEQ ID NO: 7 (ligand)
chain: FVGQHLCGSHLVEALYLVCGERGFFYTPKTYDGKGIVEQCCTSICSLYQLENYCG
modifications: ends and bridges not checked; cysteine pairing not given here
notes: as for B1

Target: insulin receptor (IR) (UniProt P06213 28-1382)
Assay: method not stated; in the absence of glucose

Binder	Kd [nM]
B1	4.51
B2	1.21
